Laboratory results reported in patent US20200002421A1, “ANTI-B7-H3 ANTIBODIES AND ANTIBODY DRUG CONJUGATES” (AbbVie Inc., priority 2016, published 2020).
Changes are numbered by the printed parent chain.

T1: huB7-H3 (Homo sapiens, UniProt Q5ZPR3)
T1 construct: His tag (6xHis) (C)
T1 sequence (Q5ZPR3 with tags, fused parts or gaps): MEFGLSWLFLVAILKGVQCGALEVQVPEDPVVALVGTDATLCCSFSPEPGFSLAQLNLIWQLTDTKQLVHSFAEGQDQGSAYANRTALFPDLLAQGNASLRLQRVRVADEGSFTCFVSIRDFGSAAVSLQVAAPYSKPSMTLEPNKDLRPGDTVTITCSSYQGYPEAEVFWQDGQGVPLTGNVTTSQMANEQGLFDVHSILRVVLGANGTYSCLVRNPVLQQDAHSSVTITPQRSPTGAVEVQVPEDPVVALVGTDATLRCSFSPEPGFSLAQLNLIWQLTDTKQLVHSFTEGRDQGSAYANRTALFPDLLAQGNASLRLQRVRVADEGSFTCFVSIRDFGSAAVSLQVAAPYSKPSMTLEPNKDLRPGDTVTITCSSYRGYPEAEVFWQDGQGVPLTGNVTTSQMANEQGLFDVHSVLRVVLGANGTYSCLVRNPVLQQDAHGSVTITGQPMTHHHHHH

B1: Ab18: mouse hybridoma anti-B7-H3 monoclonal antibody, mouse IgG1/k (antibody, V domains shown)
VH: QVQLQQSAAELARPGASVKMSCKASGYSFTSYTIHWVKQRPGQGLEWIGYINPNSRNTDYNQKFKDETTLTADRSSSTAYMQLISLTSEDSAVYYCARYSGSTPYWYFDVWGAGTTVTVSS
VL: QIVLTQSPAILSASPGEKVTMTCRASSSVSYMNWYQQKPGSSPKPWIYATSNLASGVPARFSVSVSGTSHSLTISRVEAEDAATYYCQQWSSNPLTFGAGTKLELK
B2: Ab14: mouse hybridoma anti-B7-H3 monoclonal antibody, mouse IgG1/k (antibody, V domains shown)
VH: EVKLVESGGGLVKPGGSLKLSCAASGFTFSSYGMSWVRQTPEKRLEWVATISGGGTNTYYPDSVEGRFTISRDNAKNFLYLQMSSLRSEDTALYYCARHYGSQTMDYWGQGTSVTVSS
VL: DIQMTQSPASLSASVGETVTITCRTSGNIHNYLTWYQQKQGKSPQLLVYNAKTLADGVPSRFSGSGSGTQFSLKINSLQPEDFGSYYCQHFWSIMWTFGGGTKLEIK
B3: Ab16: mouse hybridoma anti-B7-H3 monoclonal antibody, mouse IgG1/k (antibody, V domains shown)
VH: EVKLLESGGGLVQPGGSLKLSCAASGFDFSRYWMSWVRQAPGKGLEWIGEINPDSSTINYTPSLKDKFIISRDNAKNTLYLQMSKVRSEDTALYYCARPGFGNYIYAMDYWGQGTSVTVSS
VL: DIQMTQTTSSLSASLGDRVTINCRASQDISNFLNWYQQKPDGTVKLLIYYTSRLYLGVPSRFSGSGSGTDYSLTISNLEQEDIATYFCQQGNTLPPTFGGGTKLEIK
B4: Ab6: mouse hybridoma anti-B7-H3 monoclonal antibody, mouse IgG1/k (antibody, V domains shown)
VH: QVQLQQSGAELMKPGASVKISCKATGYTFSRYWIEWVKQRPGHGLEWIGEILPGSGSTNYNEKFKGKATFTADTSSNTAYMQVSSLTSEDSAVHYCARRGYGYVPYALDYWGQGTSVTVSS
VL: B3 VL with D1E, N22S, F32S, K45N, L56S, P96Y
B5: Ab13: mouse hybridoma anti-B7-H3 monoclonal antibody, mouse IgG1/k (antibody, V domains shown)
VH: DVQLQESGPDLVKPSQSLSLTCTVTGYSITSGYSWHWIRQFPGNKLEWMGYIHSSGSTNYNPSLKSRISINRDTSKNQFFLQLNSVTTEDTATYYCAGYDDYFEYWGQGTTLTVSS
VL: DIVMTQSQKFMSTSVGDRVSVTCKASQNVGFNVAWYQQKPGQSPKALIYSASYRYSGVPDRFTGSGSGTDFTLTISNVQSEDLAEYFCQQYNSYPFTFGSGTKLEIK
B6: Ab10: mouse hybridoma anti-B7-H3 monoclonal antibody, mouse IgG2b/k (antibody, V domains shown)
VH: DVQLQESGPGLVKPSQSLSLTCTVTGYSITSDYAWNWIRQFPGNRLEWMGHINYSGITNYNPSLKSRISITRDTSKNQFFLQLYSVTTEDTATYFCARRSLFYYYGSSLYAMDYWGQGTSVTVSS
VL: DVVMTQSPFSLPVSLGDQASISCRSSQSLVHSNGNTYLHWYLQKPGQSPKLLIYKVSNRFSGVPDRFSGSGSGTDFTLKISRVEAEDLGVYFCSQSTHVPWTFGGGTKLEIK
B7: Ab2: mouse hybridoma anti-B7-H3 monoclonal antibody, mouse IgG1/k (antibody, V domains shown)
VH: QVQLQQPGAELVKPGASVKLSCKASGYTFTSYWMHWVKQRPGQGLEWIGMIHPDSGTTNYNEKFRSKATLTVDKSSSTAYMQLSSLTSEDSAVYYCAVYYGSTYWYFDVWGTGTTVTVSS
VL: B6 VL with S7T, F9L, S20Y, S32I, L42R, V99F, W101F, G105S

target: T1, huB7-H3; experiment: Biacore T200 SPR binding kinetics, mAb capture; settings: Table 3
Description: The binding affinity of the purified anti-B7-H3 monoclonal antibodies was determined by surface […]. […] The binding kinetics were derived from SPR measurements using a Biacore T200 instrument and a mAb capture approach (as described in the materials and methods below).
Biacore T200 SPR instruments were used to measure the binding kinetics of human B7-H3 (4Ig-B7-H3 variant) (analyte) binding to various mAbs (ligands). The assay format was Fc-based capture via immobilized anti-mouse (Fc) (Pierce 31170) or immobilized anti-human (Fc) (Pierce 31125). A standard amine coupling protocol was employed to immobilize the capture reagents via primary amines to the carboxy-methyl (CM) dextran surface of CM5 sensorchips (Biacore); capture antibodies were coupled to a level of approximately 5000 RU. For binding kinetic measurements the assay buffer was HBS-EP+(Biacore): 10 mM Hepes, pH7.4, 150 mM NaCl, 3 mM EDTA, 0.05% polysorbate 20. During the assay, all measurements were referenced against the capture surface alone. Each assay cycle consisted of the following steps: 1) Capture of ligand to approximately 50 RU; 2) Analyte injection over both reference and test surface, 240 μL at 80 μL/min, after which the dissociation was monitored for 900 seconds at 80 μL/min; 3) Regeneration of capture surface with low pH glycine. For kinetic determinations analyte injections were 3-point, 9-fold dilution series of 900 nM, 100 nM and 11.11 nM, buffer only injections were included for secondary referencing. Data were processed and fit to a 1:1 binding model using Biacore T200 Evaluation Software to determine the binding kinetic rate constants, ka (on-rate) and kd (off-rate), and the equilibrium dissociation constant (affinity, KD).

huB7-H3 ka(1/Ms) [M⁻¹ s⁻¹]	Molecule
210000	B1
110000	B2
140000	B3
12000	B4
330000	B5
41000	B6
120000	B7
